Experimental data as given in publication PMC4287381 (Virology, 2009).

Molecular target: GST-p53 C-terminal domain (residues 300–393) (human, UniProt P04637 300-393)
Assay: pull-down

Chain of GST-p53 C-terminal domain (residues 300–393) (P04637 300-393): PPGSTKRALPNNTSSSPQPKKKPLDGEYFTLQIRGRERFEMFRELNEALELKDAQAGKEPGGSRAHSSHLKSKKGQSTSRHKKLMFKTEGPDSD

B1: Full-length EBNA3C, in vitro translated, 35S-labelled (natural protein)
chain: MESFEGQGDSRQSPDNERGDNVQTTGEHDQDPGPGPPSSGASERLVPEESYSRDQQPWGQSRGDENRGWMQRIRRRRRRRAALSGHLLDTEDNVPPWLPPHDITPYTARNIRDAACRAVKQSHLQALSNLILDSGLDTQHILCFVMAARQRLQDIRRGPLVAEGGVGWRHWLLTSPSQSWPMGYRTATLRTLTPVPNRVGADSIMLTATFGCQNAARTLNTFSATVWTPPHAGPREQERYAREAEVRFLRGKWQRRYRRIYDLIELCGSLHHIWQNLLQTEENLLDFVRFMGVMSSCNNPAVNYWFHKTIGNFKPYYPWNAPPNENPYHARRGIKEHVIQNAFRKAQIQGLSMLATGGEPRGDATSETSSDEDTGRQGSDVELESSDDELPYIDPNMEPVQQRPVMFVSRVPAKKPRKLPWPTPKTHPVKRTNVKTSDRSDKAEAQSTPERPGPSEQSSVTVEPAHPTPVEMPMVILHQPPPVPKPVPVKPTPPPSRRRRGACVVYDDDVIEVIDVETTEDSSSVSQPNKPHRKHQDGFQRSGRRQKRAAPPTVSPSDTGPPAVGPPAAGPPAAGPPAAGPPAAGPPAAGPPAAGPRILAPLSAGPPAAGPHIVTPPSARPRIMAPPVVRMFMRERQLPQSTGRKPQCFWEMRAGREITQMQQEPSSHLQSATQPTTPRPSWAPSVCALSVMDAGKAQPIESSHLSSMSPTQPISHEEQPRYEDPDAPLDLSLHPDVAAQPAPQAPYQGYQEPPAPQAPYQGYQEPPPPQAPYQGYQEPPAHGLQSSSYPGYAGPWTPRSQHPCYRHPWAPWSQDPVHGHTQGPWDPRAPHLPPQWDGSAGHGQDQVSQFPHLQSETGPPRLQLSLVPLVSSSAPSWSSPQPRAPIRPIPTRFPPPPMPLQDSMAVGCDSSGTACPSMPFASDYSQGAFTPLDINATTPKRPRVEESSHGPARCSQATAEAQEILSDNSEISVFPKDAKQTDYDASTESELD
modifications: 35S methionine label
In the case of B1, the “fold interaction against the DNA binding domain of p53 (residues 100–300)” value is reported as 1.7 fold.
